In paper PMC7070046, “Sjögren syndrome/scleroderma autoantigen 1 is a direct Tankyrase binding partner in cancer cells” (Communications Biology, 2020):
Where no end group is shown, it is not given here.

T1: TNKS1 ARC subdomains 1–3 (ARC1–3, residues 178–645) (human, UniProt O95271 178-645)
T1 construct: human Tankyrase 1, ankyrin repeat clusters 1-3, residues 178-645; Cloned into pETM11 with NcoI and XhoI; also called TNKS1 ARC1–3
T1 sequence (looked up): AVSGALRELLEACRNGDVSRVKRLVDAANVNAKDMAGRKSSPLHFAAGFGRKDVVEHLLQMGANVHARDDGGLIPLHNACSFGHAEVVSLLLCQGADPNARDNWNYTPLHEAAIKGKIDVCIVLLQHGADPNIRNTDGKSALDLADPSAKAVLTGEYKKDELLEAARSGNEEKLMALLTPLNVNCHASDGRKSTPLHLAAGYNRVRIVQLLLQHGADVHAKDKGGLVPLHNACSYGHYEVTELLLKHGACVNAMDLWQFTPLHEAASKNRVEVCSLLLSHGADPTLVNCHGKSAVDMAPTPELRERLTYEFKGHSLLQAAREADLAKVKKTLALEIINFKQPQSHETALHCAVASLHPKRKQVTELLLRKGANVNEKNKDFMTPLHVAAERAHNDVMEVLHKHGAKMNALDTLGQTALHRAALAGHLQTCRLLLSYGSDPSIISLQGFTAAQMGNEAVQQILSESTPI

T2: TNKS1 ARC subdomains 1–3 (ARC1–3, residues 178–645) (human, UniProt O95271 178-645)
T2 chain: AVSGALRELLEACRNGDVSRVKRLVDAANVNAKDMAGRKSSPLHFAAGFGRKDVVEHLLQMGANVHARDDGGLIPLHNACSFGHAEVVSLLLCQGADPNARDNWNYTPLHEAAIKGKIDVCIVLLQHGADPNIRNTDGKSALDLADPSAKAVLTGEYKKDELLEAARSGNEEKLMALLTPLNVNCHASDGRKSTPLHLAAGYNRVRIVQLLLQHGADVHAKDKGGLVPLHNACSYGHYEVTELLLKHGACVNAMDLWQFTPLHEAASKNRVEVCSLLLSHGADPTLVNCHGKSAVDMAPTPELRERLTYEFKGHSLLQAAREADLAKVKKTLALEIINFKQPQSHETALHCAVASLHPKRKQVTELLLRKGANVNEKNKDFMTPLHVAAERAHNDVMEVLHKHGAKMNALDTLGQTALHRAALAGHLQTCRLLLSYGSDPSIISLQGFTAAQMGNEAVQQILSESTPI


Columns and labels:
[1] = biological target: T1, TNKS1 ARC subdomains 1–3 (ARC1–3, …); test: fluorescence polarisation; 50 nM 5-FAM-Ahx peptide with varied ARC1–3 protein; 25 mM HEPES pH 8, 150 mM NaCl, 1 mM TCEP, 5% glycerol, 0.05% CHAPS; room temperature, 60 min; one-site total binding model; settings: both partners purified
[2] = biological target: T2, TNKS1 ARC subdomains 1–3 (ARC1–3, …); test: FP
[3] = biological target: the molecule itself; test: SEC; HiLoad Superdex S75 16/600; 20 mM HEPES pH 7.4, 200 mM NaCl, 5% glycerol, 0.1 mM TCEP; elution compared with standard proteins (estimated native MW 24.6 kDa, predicted 12.5 kDa)

binding result [1] | Kd [2] [nM] | Binder | stoichiometry N [3]
binds |  | TSLETSIQLCGLIRACAEALRSLQQL (cysteine pairing not given here; also: 5-FAM-Ahx conjugate, position not given here, human SSSCA1, helix H2 region; source: synthetic peptide (bought: GenScript)) | 
binds | 460 | EDAPRPPVPGEEG (not fully specified (N-terminus); also: 5-FAM-Ahx-conjugated, source: synthetic peptide (bought: GenScript)) [Axin1 positive control peptide (EDAPRPPVPGEEG)] | 
binds | 460 | DVMACTQTALLQKLTWASAELGSS (not fully specified (N-terminus); also: 5-FAM-Ahx-conjugated, human SSSCA1, helix H1 region; source: synthetic peptide (bought: GenScript)) [SSSCA1-H1 peptide (DVMACTQTALLQKLTWASAELGSS)] | 

Further lines, the binder ahead of its results:

Binder | binding result [1] | Kd [2] [nM] | stoichiometry N [3]
SSSCA1 N-terminal Auto_anti-p27 domain (M1-S111) (domain or fragment, human, UniProt O60232 1-111, looked up, Residues 1-12 and 78-111 are not modelled in the crystal structure; also called N-terminal SSSCA1; hSSSCA1; not shown: His6, N-terminal, cleaved) MALNGAEVDDFSWEPPTEAETKVLQARRERQDRISRLMGDYLLRGYRMLGETCADCGTILLQDKQRKIYCVACQELDSDVDKDNPALNAQAALSQAREHQLASASELPLGS |  |  | 2
TSLETSIQLCGLIRACAEALRSLQQL (not fully specified (N-terminus); cysteine pairing not given here; also: 5-FAM-Ahx-conjugated) |  | 60 | 
